Reference: patent US20150184163A1

Biological target: TSLP Receptor (TSLPR), heterodimer of the IL7 receptor alpha (IL7Rα) chain and the TSLP-specific receptor chain (TSLPR; Crlf2), on mouse DRG sensory neurons (mouse) (UniProt Q8CII9)
Test: cell-based or functional assay

TSLP Receptor (TSLPR), heterodimer of the IL7 receptor alpha (IL7Rα) chain and the TSLP-specific receptor chain (TSLPR; Crlf2), on mouse DRG sensory neurons (mouse), sequence (Q8CII9 20-359, chain 1 of 2): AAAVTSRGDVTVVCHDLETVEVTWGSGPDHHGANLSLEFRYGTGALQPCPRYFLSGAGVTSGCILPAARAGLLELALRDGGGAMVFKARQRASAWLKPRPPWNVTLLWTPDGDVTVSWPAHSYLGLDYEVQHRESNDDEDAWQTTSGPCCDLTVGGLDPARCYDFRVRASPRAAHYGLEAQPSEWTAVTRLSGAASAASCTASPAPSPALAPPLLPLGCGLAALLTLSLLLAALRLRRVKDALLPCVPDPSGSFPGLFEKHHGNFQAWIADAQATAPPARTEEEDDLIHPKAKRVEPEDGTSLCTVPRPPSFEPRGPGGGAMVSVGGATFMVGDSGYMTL
TSLP Receptor (TSLPR), heterodimer of the IL7 receptor alpha (IL7Rα) chain and the TSLP-specific receptor chain (TSLPR; Crlf2), on mouse DRG sensory neurons (mouse), sequence (P16872 21-459, chain 2 of 2, further chain): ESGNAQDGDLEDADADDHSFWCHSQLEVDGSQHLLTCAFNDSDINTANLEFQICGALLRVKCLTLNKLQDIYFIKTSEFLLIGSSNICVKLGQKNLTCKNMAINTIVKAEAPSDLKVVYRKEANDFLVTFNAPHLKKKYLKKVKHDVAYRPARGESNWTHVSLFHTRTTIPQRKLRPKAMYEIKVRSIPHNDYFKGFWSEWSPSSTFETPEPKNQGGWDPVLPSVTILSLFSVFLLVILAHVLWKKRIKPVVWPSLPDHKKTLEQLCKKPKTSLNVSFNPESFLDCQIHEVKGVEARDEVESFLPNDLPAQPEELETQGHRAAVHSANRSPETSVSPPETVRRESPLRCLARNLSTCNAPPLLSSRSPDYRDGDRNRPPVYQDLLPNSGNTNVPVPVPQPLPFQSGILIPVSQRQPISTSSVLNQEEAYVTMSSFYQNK

Work on “Thymic Stromal Lymphopoietin (TSLP) (ligand)” yielded a prevalence of DRG neurons with increases in intracellular Ca2+ following TSLP application (ratiometric Ca2+ imaging) of 4.1%.
